Experimental data published in patent US20200079833A1 (AstraZeneca / MedImmune, published 2020).
Starred links: 1 amine or outer side, 2 acyl side, 3 side chain; linkers in the order of their positions; H or OH if unused. Non-standard residues stand in square brackets, D forms with d. Groups on a side chain read outwards from the residue. No end group written: not given here. *: point of attachment. γGlu = O=C(O)[C@H](CCC(=O)[*:2])N[*:1]; Palmitoyl = CCCCCCCCCCCCCCCC(=O)*; αMeF = C[C@](N)(Cc1ccccc1)C(=O)O; αMeK = C[C@](N)(CCCCN)C(=O)O; αMeS = C[C@](N)(CO)C(=O)O; Aib = CC(C)(N)C(=O)O

T1: glucose-dependent insulinotropic peptide (gastric inhibitory polypeptide) receptor (GIPR) (human, UniProt P48546 22-466)
T1 sequence (looked up): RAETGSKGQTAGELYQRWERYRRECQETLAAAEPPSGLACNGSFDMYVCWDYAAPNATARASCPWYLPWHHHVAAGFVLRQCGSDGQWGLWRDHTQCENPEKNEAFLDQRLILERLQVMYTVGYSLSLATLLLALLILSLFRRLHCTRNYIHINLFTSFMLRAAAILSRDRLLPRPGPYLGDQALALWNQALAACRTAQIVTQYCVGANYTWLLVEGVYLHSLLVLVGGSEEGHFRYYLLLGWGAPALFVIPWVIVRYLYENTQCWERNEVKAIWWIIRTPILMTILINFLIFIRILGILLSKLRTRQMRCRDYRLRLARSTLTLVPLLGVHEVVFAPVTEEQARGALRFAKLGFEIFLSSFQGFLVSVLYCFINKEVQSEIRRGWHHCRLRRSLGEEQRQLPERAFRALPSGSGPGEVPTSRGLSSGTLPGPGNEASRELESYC

B1: SEQ ID NO 90 (peptide)
peptide: H[Aib]EGS[αMeF]TSDK([γGlu-Palmitoyl])[αMeS]S[αMeF]LEGEAA[αMeK]E[αMeF]IA[αMeF]VV[αMeK]GG-NH2
modifications: N-terminus assumed
SMILES: CCCCCCCCCCCCCCCC(=O)N[C@@H](CCC(=O)NCCCC[C@H](NC(=O)[C@H](CC(=O)O)NC(=O)[C@H](CO)NC(=O)[C@@H](NC(=O)[C@](C)(Cc1ccccc1)NC(=O)[C@H](CO)NC(=O)CNC(=O)[C@H](CCC(=O)O)NC(=O)C(C)(C)NC(=O)[C@@H](N)Cc1c[nH]cn1)[C@@H](C)O)C(=O)N[C@@](C)(CO)C(=O)N[C@@H](CO)C(=O)N[C@@](C)(Cc1ccccc1)C(=O)N[C@@H](CC(C)C)C(=O)N[C@@H](CCC(=O)O)C(=O)NCC(=O)N[C@@H](CCC(=O)O)C(=O)N[C@@H](C)C(=O)N[C@@H](C)C(=O)N[C@@](C)(CCCCN)C(=O)N[C@@H](CCC(=O)O)C(=O)N[C@@](C)(Cc1ccccc1)C(=O)N[C@H](C(=O)N[C@@H](C)C(=O)N[C@@](C)(Cc1ccccc1)C(=O)N[C@H](C(=O)N[C@H](C(=O)N[C@@](C)(CCCCN)C(=O)NCC(=O)NCC(N)=O)C(C)C)C(C)C)[C@@H](C)CC)C(=O)O
B2: SEQ ID NO 93 (peptide)
peptide: H[Aib]EGS[αMeF]K([γGlu-Palmitoyl])SDV[αMeS]S[αMeF]LEGEAA[αMeK]E[αMeF]IA[αMeF]VV[αMeK]GG-NH2
modifications: N-terminus assumed
SMILES: CCCCCCCCCCCCCCCC(=O)N[C@@H](CCC(=O)NCCCC[C@H](NC(=O)[C@](C)(Cc1ccccc1)NC(=O)[C@H](CO)NC(=O)CNC(=O)[C@H](CCC(=O)O)NC(=O)C(C)(C)NC(=O)[C@@H](N)Cc1c[nH]cn1)C(=O)N[C@@H](CO)C(=O)N[C@@H](CC(=O)O)C(=O)N[C@H](C(=O)N[C@@](C)(CO)C(=O)N[C@@H](CO)C(=O)N[C@@](C)(Cc1ccccc1)C(=O)N[C@@H](CC(C)C)C(=O)N[C@@H](CCC(=O)O)C(=O)NCC(=O)N[C@@H](CCC(=O)O)C(=O)N[C@@H](C)C(=O)N[C@@H](C)C(=O)N[C@@](C)(CCCCN)C(=O)N[C@@H](CCC(=O)O)C(=O)N[C@@](C)(Cc1ccccc1)C(=O)N[C@H](C(=O)N[C@@H](C)C(=O)N[C@@](C)(Cc1ccccc1)C(=O)N[C@H](C(=O)N[C@H](C(=O)N[C@@](C)(CCCCN)C(=O)NCC(=O)NCC(N)=O)C(C)C)C(C)C)[C@@H](C)CC)C(C)C)C(=O)O
B3: SEQ ID NO 91 (peptide)
peptide: H[Aib]EGS[αMeF]TSK([γGlu-Palmitoyl])V[αMeS]S[αMeF]LEGEAA[αMeK]E[αMeF]IA[αMeF]VV[αMeK]GG-NH2
modifications: N-terminus assumed
SMILES: CCCCCCCCCCCCCCCC(=O)N[C@@H](CCC(=O)NCCCC[C@H](NC(=O)[C@H](CO)NC(=O)[C@@H](NC(=O)[C@](C)(Cc1ccccc1)NC(=O)[C@H](CO)NC(=O)CNC(=O)[C@H](CCC(=O)O)NC(=O)C(C)(C)NC(=O)[C@@H](N)Cc1c[nH]cn1)[C@@H](C)O)C(=O)N[C@H](C(=O)N[C@@](C)(CO)C(=O)N[C@@H](CO)C(=O)N[C@@](C)(Cc1ccccc1)C(=O)N[C@@H](CC(C)C)C(=O)N[C@@H](CCC(=O)O)C(=O)NCC(=O)N[C@@H](CCC(=O)O)C(=O)N[C@@H](C)C(=O)N[C@@H](C)C(=O)N[C@@](C)(CCCCN)C(=O)N[C@@H](CCC(=O)O)C(=O)N[C@@](C)(Cc1ccccc1)C(=O)N[C@H](C(=O)N[C@@H](C)C(=O)N[C@@](C)(Cc1ccccc1)C(=O)N[C@H](C(=O)N[C@H](C(=O)N[C@@](C)(CCCCN)C(=O)NCC(=O)NCC(N)=O)C(C)C)C(C)C)[C@@H](C)CC)C(C)C)C(=O)O
B4: SEQ ID NO 89 (peptide)
peptide: H[Aib]EGS[αMeF]TSDVK([γGlu-Palmitoyl])S[αMeF]LEGEAA[αMeK]E[αMeF]IA[αMeF]VV[αMeK]GG-NH2
modifications: N-terminus assumed
SMILES: CCCCCCCCCCCCCCCC(=O)N[C@@H](CCC(=O)NCCCC[C@H](NC(=O)[C@@H](NC(=O)[C@H](CC(=O)O)NC(=O)[C@H](CO)NC(=O)[C@@H](NC(=O)[C@](C)(Cc1ccccc1)NC(=O)[C@H](CO)NC(=O)CNC(=O)[C@H](CCC(=O)O)NC(=O)C(C)(C)NC(=O)[C@@H](N)Cc1c[nH]cn1)[C@@H](C)O)C(C)C)C(=O)N[C@@H](CO)C(=O)N[C@@](C)(Cc1ccccc1)C(=O)N[C@@H](CC(C)C)C(=O)N[C@@H](CCC(=O)O)C(=O)NCC(=O)N[C@@H](CCC(=O)O)C(=O)N[C@@H](C)C(=O)N[C@@H](C)C(=O)N[C@@](C)(CCCCN)C(=O)N[C@@H](CCC(=O)O)C(=O)N[C@@](C)(Cc1ccccc1)C(=O)N[C@H](C(=O)N[C@@H](C)C(=O)N[C@@](C)(Cc1ccccc1)C(=O)N[C@H](C(=O)N[C@H](C(=O)N[C@@](C)(CCCCN)C(=O)NCC(=O)NCC(N)=O)C(C)C)C(C)C)[C@@H](C)CC)C(=O)O
B5: SEQ ID NO 94 (peptide)
peptide: H[Aib]EGSK([γGlu-Palmitoyl])TSDV[αMeS]S[αMeF]LEGEAA[αMeK]E[αMeF]IA[αMeF]VV[αMeK]GG-NH2
modifications: N-terminus assumed
SMILES: CCCCCCCCCCCCCCCC(=O)N[C@@H](CCC(=O)NCCCC[C@H](NC(=O)[C@H](CO)NC(=O)CNC(=O)[C@H](CCC(=O)O)NC(=O)C(C)(C)NC(=O)[C@@H](N)Cc1c[nH]cn1)C(=O)N[C@H](C(=O)N[C@@H](CO)C(=O)N[C@@H](CC(=O)O)C(=O)N[C@H](C(=O)N[C@@](C)(CO)C(=O)N[C@@H](CO)C(=O)N[C@@](C)(Cc1ccccc1)C(=O)N[C@@H](CC(C)C)C(=O)N[C@@H](CCC(=O)O)C(=O)NCC(=O)N[C@@H](CCC(=O)O)C(=O)N[C@@H](C)C(=O)N[C@@H](C)C(=O)N[C@@](C)(CCCCN)C(=O)N[C@@H](CCC(=O)O)C(=O)N[C@@](C)(Cc1ccccc1)C(=O)N[C@H](C(=O)N[C@@H](C)C(=O)N[C@@](C)(Cc1ccccc1)C(=O)N[C@H](C(=O)N[C@H](C(=O)N[C@@](C)(CCCCN)C(=O)NCC(=O)NCC(N)=O)C(C)C)C(C)C)[C@@H](C)CC)C(C)C)[C@@H](C)O)C(=O)O
B6: SEQ ID NO 92 (peptide)
peptide: H[Aib]EGS[αMeF]TK([γGlu-Palmitoyl])DV[αMeS]S[αMeF]LEGEAA[αMeK]E[αMeF]IA[αMeF]VV[αMeK]GG-NH2
modifications: N-terminus assumed
SMILES: CCCCCCCCCCCCCCCC(=O)N[C@@H](CCC(=O)NCCCC[C@H](NC(=O)[C@@H](NC(=O)[C@](C)(Cc1ccccc1)NC(=O)[C@H](CO)NC(=O)CNC(=O)[C@H](CCC(=O)O)NC(=O)C(C)(C)NC(=O)[C@@H](N)Cc1c[nH]cn1)[C@@H](C)O)C(=O)N[C@@H](CC(=O)O)C(=O)N[C@H](C(=O)N[C@@](C)(CO)C(=O)N[C@@H](CO)C(=O)N[C@@](C)(Cc1ccccc1)C(=O)N[C@@H](CC(C)C)C(=O)N[C@@H](CCC(=O)O)C(=O)NCC(=O)N[C@@H](CCC(=O)O)C(=O)N[C@@H](C)C(=O)N[C@@H](C)C(=O)N[C@@](C)(CCCCN)C(=O)N[C@@H](CCC(=O)O)C(=O)N[C@@](C)(Cc1ccccc1)C(=O)N[C@H](C(=O)N[C@@H](C)C(=O)N[C@@](C)(Cc1ccccc1)C(=O)N[C@H](C(=O)N[C@H](C(=O)N[C@@](C)(CCCCN)C(=O)NCC(=O)NCC(N)=O)C(C)C)C(C)C)[C@@H](C)CC)C(C)C)C(=O)O

Each binder was assayed against glucagon receptor (GCGR) (human, UniProt P47871 26-477) (assay: cell-based or functional assay).
Chain of glucagon receptor (GCGR) (P47871 26-477): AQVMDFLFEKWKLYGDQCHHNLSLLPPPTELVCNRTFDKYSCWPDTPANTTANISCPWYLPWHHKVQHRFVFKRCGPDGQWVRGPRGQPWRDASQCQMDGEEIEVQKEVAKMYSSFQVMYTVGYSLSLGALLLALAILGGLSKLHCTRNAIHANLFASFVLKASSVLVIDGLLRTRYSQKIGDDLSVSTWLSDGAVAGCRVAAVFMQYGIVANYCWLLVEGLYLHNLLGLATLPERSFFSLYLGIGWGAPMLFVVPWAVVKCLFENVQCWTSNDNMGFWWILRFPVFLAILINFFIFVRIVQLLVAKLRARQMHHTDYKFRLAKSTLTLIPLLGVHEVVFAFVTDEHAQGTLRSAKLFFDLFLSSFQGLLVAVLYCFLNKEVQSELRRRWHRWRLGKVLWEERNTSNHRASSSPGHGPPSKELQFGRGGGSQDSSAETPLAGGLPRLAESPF

Row | Binder | cAMP Primary assay EC50 Gluc-R [nM] | cAMP Primary assay EC50 Gluc-R (2nd) [nM]
1 | B1 | 28 | 28
2 | B2 | 28 | 28
3 | B3 | 28 | 28
4 | B4 | 28 | 28
5 | B5 | 28 | 28
6 | B6 | 28 | 28

These binders were tested against T1, glucose-dependent insulinotropic … (assay: cell-based or functional assay).

Row | Binder | cAMP Primary assay EC50 GIP-R [nM] | cAMP Primary assay EC50 GIP-R (2nd) [nM]
7 | B1 | 28 | 28
8 | B2 | 28 | 28
9 | B3 | 28 | 28
10 | B4 | 28 | 28
11 | B5 | 28 | 28
12 | B6 | 28 | 28

Each binder was assayed against GLP-1 receptor (GLP-1R) (human, UniProt P43220 24-463) (assay: cell-based or functional assay).

Row | Binder | cAMP Mean pM GLP-1R [pM] | cAMP Primary assay EC50 GLP-1R n1 [nM] | cAMP Primary assay EC50 GLP-1R n2 [nM]
13 | B1 | 0.7 | 0.00068 | 0.00079
14 | B2 | 27600 | 28 | 28
15 | B3 | 24 | 0.021 | 0.027
16 | B4 | 548 | 0.45 | 0.65
17 | B5 | 228 | 0.14 | 0.32
18 | B6 | 423 | 0.45 | 0.39
